Series [1] deals with the molecule itself. Kind of series: ANS fluorescence aggregation kinetics; 100 μM NAC peptide, 40 μM ANS, 1× PBS at acidic (pH 4.2 in the methods, 4.5 in the legend), neutral (7.2) or basic (8.0) pH, 37 °C, 1000 rpm.
Series [2] deals with the molecule itself. Kind of series: co-sedimentation; 100 μM NAC peptide incubated 48 h without ThT, centrifuged at 65 000 g for 1 h; UV–Vis spectra (400–600 nm) of soluble and insoluble fractions.

B1: NAC11 (peptide, UniProt P37840 68-78, looked up)
peptide: GAVVTGVTAVA
notes: alpha-synuclein, residues 68-78 (NAC residues 8-18); also called NACore; αSyn 68–78; source: synthetic peptide (GenScript Biotech, purity ≥ 95%)
On to B1, for which the binding result in series [1] is recorded as “binds”.

B2: NAC16 (peptide, UniProt P37840 63-78, looked up)
peptide: VTNVGGAVVTGVTAVA
notes: alpha-synuclein, residues 63-78 (NAC residues 3-18); also called αSyn 63–78; source: synthetic peptide (GenScript Biotech, purity ≥ 95%)
On to B2, for which, in series [2], the binding result is reported as “binds”.

Values taken from publication PMC12797002, “Hydrophobic residues in the α‐synuclein NAC domain drive seed‐competent fibril formation and are targeted by peptide inhibitors” (The Febs Journal, 2025).
